The values below come from US10407662B2, “Method of culturing pluripotent stem cell, and polypeptide to be used therefor” (FUJIFILM Corporation, priority 2012, dated 2019).

The subject of series [1] is human iPS cells. The series can be described thus: Cell Adhesiveness Evaluation 2 (synthetic peptide inhibition of cell adhesion to natural vitronectin). The conditions noted are these: 100 μM synthetic peptide. The series is classed as cell-based. As to the method:
Polypeptides listed in Table 7 were synthesized by Emoc solid phase synthesis. A surface to which natural vitronectin was adsorbed at a concentration of 130 pmol/m^2, and thereafter, a cell suspension to which 100 μM of the above-described synthetic peptide was added was seeded at a rate of 30,000 cells/well. The number of adherent cells after 24 h post seeding was calculated by the same technique as in <Cell Adhesiveness Evaluation 1>.

Series [2] is described as follows: Evaluation of adsorptivity to culture plate (OPA fluorescence). The class given is physicochemical. The conditions noted are these: FIG. 1; for adsorptivity to a plate: 0 to 200 pmol/cm^2, 37° C. 2 hours, washed with PBS twice. How it is done: Each polypeptide obtained by the above-described method was diluted with a predetermined buffer so as to be added to wells at a predetermined final concentration of from 0 to 200 pmol/cm^2, and the resultant was aliquoted in 64 μL to a 96-well plate made of polystyrene and treated with plasma (Tissue Culture-Treated, Falcon). Each polypeptide was adsorbed to the plate by incubation at 37° C. for 2 hours, and was thereafter washed with PBS twice, to obtain a surface coated with each of the polypeptides of from RCP-1 to RCP-16.
To surfaces coated with RCP-1, and from RCP-11 to RCP-16 among the polypeptide-coated surfaces obtained as described above, 64 μL of each of boric acid buffer and 1 N NaOH was applied, and incubated at 80° C. and a humidity of 100% for 24 hours. After air-cooling, 75 μL of boric acid buffer was added to each well, and 50 μL of reaction liquid in which an OPA (o-phthalaldehyde: Wako Pure Chemical Industries, Ltd.)/methanol solution (160 mg/ml) and an NAC (N-acetyl-L-cysteine: Wako Pure Chemical industries, Ltd.)/boric acid buffer solution (2 mg/ml) were mixed at 1:100 (mass ratio) was further added. After incubation at 40° C. for 30 minutes, the fluorescence intensity thereof was measured (excitation of 355 nm/fluorescence of 486 nm) using an ENVISION MULTI-LABEL COUNTER (PerkinElmer Inc.). A calibration curve was separately made from each polypeptide solution, to calculate an amount of adsorption. In FIG. 1, a black rhombus, a black tetragon, a black triangle, a black circle, a white rhombus, a white tetragon, and a white triangle represent RCP-1, RCP-11, RCP-12, RCP-13, RCP-14, RCP-15, and RCP-16, respectively.

Series [3] can be described thus: Presence or absence of aggregation after dialysis. The conditions noted are these: after stepwise dialysis removing urea. The class given is physicochemical. As to the method:
For from RCP-1 to RCP-10, and RCP-17, each polypeptide solution after the purification was dialyzed using a SLIDE-A-LIZER (3.5K MWCO). A dialysis external liquid was based on a dialysis buffer (PBS, 1.5 M NaCl, 0.5 M L-arginine, 1 mM EDTA, pH 7.4), and urea was removed by stepwise dialysis. The concentration of an end dialysis product was calculated at an absorbance of 280 nm using a NANODROP (Thremo Fisher Scientific Inc.).
In addition, the presence or absence of aggregation was evaluated by G, A, and B below.
G: Formation of an aggregate is not observed.
A: Formation of particles having a particle diameter of around 100 nm is observed.
B: Formation of visible aggregation with a particle diameter of 1 mm or more is observed.

The subject of series [4] is human iPS cells. The series is described as follows: Proliferation Evaluation of iPS cells on polypeptide-coated plate. The class given is cell-based. The conditions noted are these: addition amount 20 μg/cm^2; 5000 cells/well. How it is done: The iPS cells collected in the same manner as in <Cell Adhesiveness Evaluation 1>described above were seeded on a 96-well plate, to which RCP-1, RCP-11, and the natural human vitronectin were adsorbed, at a rate of 250 cells/well, and were cultured in a 5% CO2 incubator at 37° C. for 8 days. The number of adherent cells after each lapse of time was measured by the same method as in <Cell Adhesiveness Evaluation 1> described above, to obtain proliferation curves, The proliferation curves were indicated in FIG. 2. In FIG. 2, a black rhombus represents an example in which RCP-1 was used, while a black tetragon represents an example in which RCP-11 was used.
Similarly, each of samples from […] was prepared so as to have an addition concentration listed in Table 8 with each of from RCP-1 to RCP-10, and RCP-17, and Human Recombinant Laminin-511 as a reference, was seeded on a 96-well plate, to which each polypeptide was adsorbed, at a rate of 5000 cells/well in the same manner as in<Cell Adhesiveness Evaluation 1> described above, and was cultured in a CO2 incubator at 37° C. for 3 days. The number of cells after the 3 days was measured by the same method as in <Cell Adhesiveness Evaluation 1> described above.

As to CCTDYTAECKPQVTRGDVFT [Peptide-5], the “inhibition of cell adhesion to natural vitronectin (in words)” value in the series on human iPS cells [1] is given as “significantly inhibited”. On the same count and under the same terms, the value for DQESCKGRCTEGFNVDKKCQ [Peptide-1] was “adhesion inhibition did not occur”; that for EGFNVDKKCQCDELCSYYQS [Peptide-3] was “adhesion inhibition did not occur”; that for “TAECKPQVTRGEVGTMPEDE (TAECKPQVTRGEVFTMPEDE) [Peptide-8]” was “adhesion inhibition did not occur”. Turning to “RCP-14: comparative recombinant polypeptide, GPLG + human vitronectin positions 1-55 (GPLGDQESCKGRCTEGFNVDKKCQCDELCSYYQSCCTDYTAECKPQVTRGDVFTMPEDE; Synthetic Peptide RCP-14) [reference compound]”, in series [2], the “adsorption amount relative to that of the polypeptide containing SEQ ID NO:2” value is on record as “¼” and the “adsorptivity to a plate” value was “inadequate as an adsorbent to a culture plate”.

B1: RCP-16: comparative recombinant polypeptide, GPLG + human vitronectin positions 269-459 (protein)
chain: GPLGPSQEECEGSSLSAVFEHFAMMQRDSWEDIFELLFWGRTSAGTRQPQFISRDWHGVPGQVDAAMAGRIYISGMAPRPSLAKKQRFRHRNRKGYRSQRGHSRGRNQNSRRPSRATWLSLFSSEESNLGANNYDDYRMDWLVPATCEPIQSVFFFSGDKYYRVNLRTRRVDTVDPPYPRSIAQYWLGCPAPGHL
modifications: Synthetic Peptide RCP-16
As to B1, in series [2], the “adsorptivity to a plate” value is reported as “favorable adsorptivity to a plate, equivalent to that of RCP-11”.

B2: RCP-9: recombinant polypeptide, Met + human vitronectin positions 1-55, 269-373, 374-389, C274S (protein)
chain: MDQESCKGRCTEGFNVDKKCQCDELCSYYQSCCTDYTAECKPQVTRGDVFTMPEDESQEESEGSSLSAVFEHFAMMQRDSWEDIFELLFWGRTSAGTRQPQFISRDWHGVPGQVDAAMAGRIYISGMAPRPSLAKKQRFRHRNRKGYRSQRGHSRGRNQNSRRPSRATWLSLFSSE
modifications: Synthetic Peptide RCP-9
notes: recombinant polypeptide, Met + human vitronectin positions 1-55, 269-373, 374-389, C274S
On to B2, for which the Aggregation entry in series [3] was “B (Formation of visible aggregation with a particle diameter of 1 mm or more is observed.)”. Further, in the series on human iPS cells [4], the “The Number (%) of Cells after 3 Days” value is 105.8%.

B3: RCP-15: comparative recombinant polypeptide, GPLG + human vitronectin positions 56-459 (protein)
chain: GPLGYTVYDDGEEKNNATVHEQVGGPSLTSDLQAQSKGNPEQTPVLKPEEEAPAPEVGASKPEGIDSRPETLHPGRPQPPAEEELCSGKPFDAFTDLKNGSLFAFRGQYCYELDEKAVRPGYPKLIRDVWGIEGPIDAAFTRINCQGKTYLFKGSQYWRFEDGVLDPDYPRNISDGFDGIPDNVDAALALPAHSYSGRERVYFFKGKQYWEYQFQHQPSQEECEGSSLSAVFEHFAMMQRDSWEDIFELLFWGRTSAGTRQPQFISRDWHGVPGQVDAAMAGRIYISGMAPRPSLAKKQRFRHRNRKGYRSQRGHSRGRNQNSRRPSRATWLSLFSSEESNLGANNYDDYRMDWLVPATCEPIQSVFFFSGDKYYRVNLRTRRVDTVDPPYPRSIAQYWLGCPAPGHL
modifications: Synthetic Peptide RCP-15
Take B3: the “adsorptivity to a plate” value in series [2] was “favorable adsorptivity to a plate, equivalent to that of RCP-11”.

B4: RCP-10: recombinant polypeptide, Met + human vitronectin positions 1-55, 269-373, 374-399, C274S (protein)
chain: MDQESCKGRCTEGFNVDKKCQCDELCSYYQSCCTDYTAECKPQVTRGDVFTMPEDESQEESEGSSLSAVFEHFAMMQRDSWEDIFELLFWGRTSAGTRQPQFISRDWHGVPGQVDAAMAGRIYISGMAPRPSLAKKQRFRHRNRKGYRSQRGHSRGRNQNSRRPSRATWLSLFSSEESNLGANNYD
modifications: Synthetic Peptide RCP-10
notes: recombinant polypeptide, Met + human vitronectin positions 1-55, 269-373, 374-399, C274S
With B4, the Aggregation entry in series [3] is “B (Formation of visible aggregation with a particle diameter of 1 mm or more is observed.)”. Moreover, in the series on human iPS cells [4], the “The Number (%) of Cells after 3 Days” value was 101.9%.

B5: RCP-13: comparative recombinant polypeptide, GPLG + human vitronectin positions 1-55, 56-129 (protein)
chain: GPLGDQESCKGRCTEGFNVDKKCQCDELCSYYQSCCTDYTAECKPQVTRGDVFTMPEDEYTVYDDGEEKNNATVHEQVGGPSLTSDLQAQSKGNPEQTPVLKPEEEAPAPEVGASKPEGIDSRPETLHPGRPQP
modifications: Synthetic Peptide RCP-13
Consider B5, for which, in series [2], the “adsorption amount relative to that of the polypeptide containing SEQ ID NO:2” value is given as “¼” and the “adsorptivity to a plate” value was “inadequate as an adsorbent to a culture plate”.
